# From patent publication US20230242662A1 (BIOATLA, published 2023)
# T1: recombinant cyno CD46 antigen (cynomolgus, UniProt A0A2K5WCL8 35-328)
# T1 construct: extracellular domain; Plate-coated antigen of the ELISA; also called cynomolgus CD46 extracellular domain
# T1 sequence: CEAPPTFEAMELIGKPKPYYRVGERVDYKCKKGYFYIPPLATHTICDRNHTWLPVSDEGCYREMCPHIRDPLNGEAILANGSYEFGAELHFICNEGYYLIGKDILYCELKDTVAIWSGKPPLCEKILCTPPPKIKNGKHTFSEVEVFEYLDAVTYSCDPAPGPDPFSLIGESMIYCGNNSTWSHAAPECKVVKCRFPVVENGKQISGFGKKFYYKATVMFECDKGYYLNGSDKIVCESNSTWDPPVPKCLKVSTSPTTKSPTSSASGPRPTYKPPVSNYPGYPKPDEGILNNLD
# T2: huCD46-His (human, UniProt P15529 35-343)
# T2 construct: extracellular domain; Immobilised by amine coupling on the SPR chip; It may be the same protein as the ELISA antigen; also called Human CD46-His; human CD46; not shown: His tag
# T2 sequence (looked up): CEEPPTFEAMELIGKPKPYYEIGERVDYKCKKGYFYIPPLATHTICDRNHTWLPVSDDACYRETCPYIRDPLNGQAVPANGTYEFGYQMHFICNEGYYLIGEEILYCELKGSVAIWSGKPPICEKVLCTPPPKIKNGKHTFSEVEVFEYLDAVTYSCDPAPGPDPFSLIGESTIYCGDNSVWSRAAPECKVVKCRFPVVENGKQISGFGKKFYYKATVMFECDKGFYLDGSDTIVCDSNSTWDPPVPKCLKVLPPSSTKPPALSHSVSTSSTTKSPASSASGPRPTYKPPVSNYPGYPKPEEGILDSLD
# T3: cynoCD46-His (cynomolgus, UniProt A0A2K5WCL8 35-328)
# T3 construct: extracellular domain; Immobilised by amine coupling on the SPR chip; not shown: His tag
# T3 sequence: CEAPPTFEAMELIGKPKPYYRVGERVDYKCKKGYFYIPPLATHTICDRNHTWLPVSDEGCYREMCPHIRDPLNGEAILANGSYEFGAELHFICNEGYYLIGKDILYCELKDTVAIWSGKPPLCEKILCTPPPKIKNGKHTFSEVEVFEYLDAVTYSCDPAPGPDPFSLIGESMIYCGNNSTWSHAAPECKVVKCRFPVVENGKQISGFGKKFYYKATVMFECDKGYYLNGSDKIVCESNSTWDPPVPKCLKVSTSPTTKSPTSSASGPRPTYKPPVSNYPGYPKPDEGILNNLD
# Legend:
# [1] = target: T4, cyno CD46 expressed on 293 cells (cynomolgus); assay: FACS, 293 cells expressing cyno CD46, pH 7.4
# T4 construct: whole, on cells; The construct on the cells is not described; also called HEK 293 cells expressing cyno CD46
# Protocol: (§1) A similar FACS analysis was also carried out using 293 cells expressing cyno CD46. […] The EC50 values for binding to the 293 cells expressing cyno CD46 by the conditionally active anti-CD46 antibodies are summarized in Table 6.
# [2] = target: T1, recombinant cyno CD46 antigen; assay: ELISA, coated cyno CD46; EC50 at pH 7.4 over EC50 at pH 6.0
# Protocol: The binding activities of conditionally active anti-CD46 antibodies to cyno CD46 were measured by ELISA and are shown in FIGS. 3-4. The EC50 values for binding to the cyno CD46 at pH 6.0 and pH 7.4 for the conditionally active anti-CD46 antibodies are summarized in Table 2.
# […] Cover with sealing film and place the plate onto a plate shaker set to 50 rpm for 60 minutes at room temperature. [0351] 6) Decant plates and tap out residual liquid on a stack of paper towels. [0352] 7) Serially dilute test articles in 3-fold dilutions starting at 3000 ng/mL in pH 6.0 or pH 7.4 ELISA incubation buffer. [0353] 8) Add 100 μL/well of diluted test articles to the plates [0354] 9) Cover with sealing film and place the plates onto a plate shaker set to 50 rpm for 60 minutes at room temperature. […] 10) Decant plates and tap out residual liquid on a stack of paper towels. [0356] 11) Wash wells three times by dispensing 200 μL of pH 6.0 or pH 7.4 ELISA wash buffer to the wells and completely aspirate the contents. [0357] 12) Dilute the HRP secondary antibody at 1:2500 in pH 6.0 or pH 7.4 ELISA incubation buffer. [0358] 13) Add 100 μL HRP secondary antibody diluted in pH 6.0 or pH 7.4 ELISA incubation buffer to each well [0359] 14) Cover with sealing film and place the plates onto a plate shaker set to 50 rpm for 60 minutes at room temperature. [0360] 15) Decant plates and tap out residual liquid on a stack of paper towels. [0361] 16) Wash wells three times by dispensing 200 μL of pH 6.0 or pH 7.4 ELISA wash buffer to the wells and completely aspirate the contents. [0362] 17) Dispense 50 μL per well of the TMB substrate solution into all wells of the plates. Incubate at room temperature for about 2 minutes 15 seconds or 2 minutes. […] 18) Add 50 μL per well of 1N HCl into all wells of the plates. Read plates at 450 nm using PerkinElmer, EnSpire 2300 Multilabel Reader.
# [3] = target: T2, huCD46-His; assay: SPR, huCD46-His immobilised, antibody as analyte, pH 7.4
# Protocol: (§2) Binding kinetics of anti-CD46 antibodies were measured by surface plasmon resonance on a SPR2/4 instrument (Sierra Sensors, Hamburg, Germany) and flat amine sensor chips. The SPR sensor contained four flow cells (FC1-FC4), each of which can be addressed individually or in groups. huCD46-His was immobilized in FC2, and cynoCD46-His was immobilized in FC4. No protein was immobilized in FC1 and FC3 which were used as control surfaces for FC2 and FC4, respectively.
# (§3) All injections were done at a flow rate of 25 μL/min and 25° C. The sensor surface was activated with 1-ethyl-3-(3-dimethylaminopropyl)-carbodiimide (EDC) and N-hydroxysuccinimide (NHS) (200 mM/50 mM) for 480 seconds. Human CD46-His (2 μg/mL in 10 mM NaAc, pH5.0) was injected for 480s and the surface was inactivated by injecting 1M ethanolamine-HCl for 480s. cynoCD46-His was immobilized using the same conditions as described for huCD46-His, except that it was diluted into 10 mM NaAc buffer pH4.5. The control surface was activated and deactivated using the same conditions, but without injecting protein. PBST buffer (PBS pH7.4 with 0.05% TWEEN20™) was used as running buffer for the surface preparation. The running solution was switched to PBST with 30 mM sodium bicarbonate with the pH adjusted as indicated in the figures before the analyte injections. The instrument was equilibrated with the running solution for one hour before the first analyte injection.
# (§4) The off-rate was measured for 360 s. The chip surface was regenerated after each cycle of interaction by injecting 6 μL of 10 mM glycine (pH 2.0). Flow cells 1 and 3 without immobilized protein were used as control surfaces for reference subtraction.
# [4] = target: T3, cynoCD46-His; assay: SPR, cynoCD46-His immobilised, antibody as analyte, pH 6.0
# Protocol: as §2, §3, §4
# [5] = target: T3, cynoCD46-His; assay: SPR, cynoCD46-His immobilised, antibody as analyte, pH 7.4
# Protocol: as §2, §3, §4
# [6] = target: T2, huCD46-His; assay: SPR, huCD46-His immobilised, antibody as analyte, pH 6.5
# Protocol: as §2, §3, §4
# [7] = target: T2, huCD46-His; assay: SPR, huCD46-His immobilised, antibody as analyte, pH 6.0
# Protocol: as §2, §3, §4
# [8] = target: T3, cynoCD46-His; assay: SPR, cynoCD46-His immobilised, antibody as analyte, pH 6.5
# Protocol: as §2, §3, §4
# [9] = target: T4, cyno CD46 expressed on 293 cells; assay: FACS, 293 cells expressing cyno CD46; EC50 at pH 7.4 over EC50 at pH 6.0
# Protocol: as §1
# [10] = target: T4, cyno CD46 expressed on 293 cells; assay: FACS, 293 cells expressing cyno CD46, pH 6.0
# Protocol: as §1
Binder,EC50 [1],ratio (ph 7.4/pH 6.0) [2],Kd [3],koff [3],kon [3],Kd [4],koff [4],kon [4],Kd [5],koff [5],kon [5],Kd [6],koff [6],kon [6],Kd [7],koff [7],kon [7],Kd [8],koff [8],kon [8],further results
"BA-133-04-02 (antibody, V domains shown, also called CPE hit BA133-04-02) VH: EVQLVESGGGLVQPGGSLRLSCAASGGSVSSYDISWIRQSPSRGLEWLGVIWTDGGTNYNSAFMSRFTISRDDSKNTAYLQMNSLKTEDTAVYYCERVYDGYPWFAYWGQGTLVTVSS VL: AIQLTQSPSSLSASVGDRVTITCRASQGIANYLNWYLQKPGQSPQLLIYYTSSLHSGVPDRFSGSGSGTDFTLKISRVEAEDVGVYYCQQYIKLPWTFGQGTKVEIK",1.37 µg/mL,9,4.17 nM,0.00174 s⁻¹,417000 M⁻¹ s⁻¹,0.519 nM,0.000835 s⁻¹,1.61e+06 M⁻¹ s⁻¹,1.06 nM,0.000904 s⁻¹,852000 M⁻¹ s⁻¹,2.31 nM,0.00127 s⁻¹,547000 M⁻¹ s⁻¹,2.33 nM,0.00143 s⁻¹,611000 M⁻¹ s⁻¹,0.683 nM,0.000943 s⁻¹,1.38e+06 M⁻¹ s⁻¹,Ratio (pH 7.4/6.0) [9]: 10.4; EC50 [10]: 0.132 µg/mL
"BA-133-04-03 (antibody, V domains shown, also called CPE hit BA133-04-03) VH: EVQLVESGGGLVQPGGSLRLSCAASGGSVSSYDISWIRQSPSRGLEWLGVIWTDGGTNYNSAFMSRFTISRDDSKNTAYLQMNSLKTEDTAVYYCERVYDGYPWFAYWGQGTLVTVSS VL: AIQLTQSPSSLSASVGDRVTITCRASQGISNYLNWYLQKPGQSPQLLIYYTSSLFSGVPDRFSGSGSGTDFTLKISRVEAEDVGVYYCQQYIKLPWTFGQGTKVEIK",0.33 µg/mL,7.14,4.8 nM,0.00249 s⁻¹,519000 M⁻¹ s⁻¹,0.514 nM,0.00143 s⁻¹,2.79e+06 M⁻¹ s⁻¹,1.26 nM,0.00153 s⁻¹,1.21e+06 M⁻¹ s⁻¹,2.07 nM,0.00195 s⁻¹,941000 M⁻¹ s⁻¹,1.52 nM,0.00179 s⁻¹,1.18e+06 M⁻¹ s⁻¹,0.624 nM,0.00142 s⁻¹,2.28e+06 M⁻¹ s⁻¹,Ratio (pH 7.4/6.0) [9]: 8; EC50 [10]: 0.0411 µg/mL
"Benchmark (BM) BA-133-00-01 (antibody, V domains shown, the killing assays used the ADC form; Conjugation site and payload are not described; also called BM (bench mark)) VH: QVQLQESGPGLVKPSETLSLTCTVSGGSVSSYDISWIRQPPGKGLEWIGVIWTDGGTNYNSAFMSRVTISVDTSKNQFSLKLSSVTAADTAVYYCARVYDGYPWFAYWGQGTLVTVSS VL: DIQMTQSPSSLSASVGDRVTITCRASQGISNYLNWYQQKPGKAPKLLIYYTSSLHSGVPSRFSGSGSGTDFTLTISSLQPEDFATYYCQQYIKLPWTFGGGTKLEIKR",0.0493 µg/mL,1.33,2.13 nM,0.00119 s⁻¹,555000 M⁻¹ s⁻¹,0.795 nM,0.00115 s⁻¹,1.45e+06 M⁻¹ s⁻¹,0.905 nM,0.0011 s⁻¹,1.21e+06 M⁻¹ s⁻¹,2.15 nM,0.00133 s⁻¹,621000 M⁻¹ s⁻¹,2.32 nM,0.00158 s⁻¹,682000 M⁻¹ s⁻¹,0.778 nM,0.00117 s⁻¹,1.51e+06 M⁻¹ s⁻¹,Ratio (pH 7.4/6.0) [9]: 1.5; EC50 [10]: 0.0336 µg/mL
